Assay results: US20010010919A1 (published 2001)

Target: T1, orphanin FQ receptor (rat, UniProt P35370 1-367)
T1 chain: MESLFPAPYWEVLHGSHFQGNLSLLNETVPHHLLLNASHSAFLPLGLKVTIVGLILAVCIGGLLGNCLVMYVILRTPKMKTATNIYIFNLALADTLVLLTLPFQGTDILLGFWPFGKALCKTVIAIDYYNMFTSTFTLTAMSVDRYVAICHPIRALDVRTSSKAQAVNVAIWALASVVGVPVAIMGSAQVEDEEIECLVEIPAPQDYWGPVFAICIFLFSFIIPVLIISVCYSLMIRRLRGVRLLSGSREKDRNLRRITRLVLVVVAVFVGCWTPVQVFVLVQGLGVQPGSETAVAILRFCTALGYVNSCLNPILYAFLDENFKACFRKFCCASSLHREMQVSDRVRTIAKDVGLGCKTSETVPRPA
Assay: cell-based or functional assay

B1: Y14-orphanin FQ (peptide)
peptide: FGGFTGARKSARKYANQ
How did the “EC50, cAMP inhibition assay” value turn out when B1 was run?
The value was 1 nM.
